The source of these data is patent US20240316011A1, “ANTI-FIBROSIS PHARMACEUTICAL COMPOSITION AND APPLICATION THEREOF” (West China Second University Hospital, priority 2020, published 2024).

One test concerns TIMP1. The following applies: old mice after PNX, PH, or kidney I/R.
A further test deals with NRP1. Briefly: HDAC and DNMT inhibitor treatment of old mice: NRP1 protein in isolated ECs (immunoblot). The test is classed as in vivo, mouse. The note with it: old mice after PNX; 10 mg/kg VPA, 0.5 mg/kg AZA. As for the experimental part: Injection of growth factor and treatment of HDAC and DNMT inhibitors. Three months old (young) mice were subjected to PNX, PH or kidney I/R and injected with 20 μg/kg […] or equal molar amounts of PDGF-BB, HGF, VEGF165, or TGFβ1 every three days. 3-mon Nrp1^+/+, Nrp1^iΔEC/iΔEC, or […] mice were also treated with […]. To test the regulation of […] and NRP1, old mice were treated with 10 mg/kg HDAC inhibitor VPA, 0.5 mg/kg DNMT1 inhibitor azacitidine (AZA), or combinatorial treatment of VPA and AZA (VPA+AZA). Expression of EPCR and NRP1 proteins in isolated lung, liver, and kidney ECs were tested by immunoblot, and […] amounts in homogenized organs was tested by ELISA.
A general note: Immunoblotting shows a protein as a band on a membrane.

Test [1] has as its system Lung and liver fibroblast cells. Briefly: TIMP1 treatment of lung fibroblast and liver stellate cell (immunoblot). The class given is cell-based, mouse. As for the experimental part: TIMP1 treatment of lung fibroblast and liver stellate cell. Lung and liver fibroblast cells were from ScienceCell Research Laboratories and cultured as described previously (Reference 8). Lung and liver fibroblast cells were treated with 20 ng/ml TIMP1, 10 ng/ml TGFβ1, or 20 ng/ml TIMP1 and 10 ng/ml TGFβ1. To identify the role of β1 integrin in TIMP1-mediated fibroblast activation, p1 integrin was silenced in fibroblast cells by shRNA. After treatment, lung and liver fibroblast cells were retrieved for analysis of Smad2 phosphorylation and SMA protein expression by immunoblot. Smad2 phosphorylation and SMA protein expression were quantified by densitometry of immunoblot.

For test [2], the system named is EPCR. The experiment in a line: Growth factor injection after PH: EPCR in liver ECs. The test is classed as in vivo, mouse. The following applies: liver lacking endothelial Nrp1 or Hif2a. The protocol:
Mouse lung regeneration and repair models. To test mouse lung alveolar regeneration and repair, models of left lung PNX (Reference 19) and lung injury (Reference 7) were adapted. Mice were anesthetized with a cocktail of ketamine (100 mg/kg) and xylazine (10 mg/kg). PNX was carried out when left lung lobe was resected with a suture tied around the hilum. PCECs were purified from 20 months (designated as old) and 3 months old (designated as young) mice after PNX, and total RNA was isolated and subjected to transcriptome analysis as described. Intratracheal injection of 2 U/kg bleomycin was employed to induce lung injury. To block EPCR signaling, mice were intraperitoneally injected with EPCR neutralizing antibody 1560 at 1.5 mg/kg (Reference 46) after PNX and Bleo injection. Young Nrp1^iΔEC/iΔEC Hif2a^iΔEC/iΔEC, and control mice were also administered with 20 μg/kg mouse P1GF or same molar amounts of HGF and PDGF-BB (Peprotech) after PNX and PH. […] At the described time points, pulmonary function and oxygen tension in arterial blood of treated mice were measured as previously described (Reference 7). To measure cell proliferation, 100 mg/kg 5-ethynyl-2′-deoxyuridine (EDU) was i.p. injected into mice one hour before sacrificing, and EDU incorporation was measured by EDU cell proliferation kit. […]

The subject of test [3] is EPCR. Briefly: Growth factor injection after PNX: EPCR / HIF2α in lung ECs. The class given is in vivo, mouse. As for the experimental part: Mouse lung regeneration and repair models. To test mouse lung alveolar regeneration and repair, models of left lung PNX (Reference 19) and lung injury (Reference 7) were adapted. Mice were anesthetized with a cocktail of ketamine (100 mg/kg) and xylazine (10 mg/kg). PNX was carried out when left lung lobe was resected with a suture tied around the hilum. PCECs were purified from 20 months (designated as old) and 3 months old (designated as young) mice after PNX, and total RNA was isolated and subjected to transcriptome analysis as described. Intratracheal injection of 2 U/kg bleomycin was employed to induce lung injury. To block EPCR signaling, mice were intraperitoneally injected with EPCR neutralizing antibody 1560 at 1.5 mg/kg (Reference 46) after PNX and Bleo injection. Young Nrp1^iΔEC/iΔEC Hif2a^iΔEC/iΔEC, and control mice were also administered with 20 μg/kg mouse P1GF or same molar amounts of HGF and PDGF-BB (Peprotech) after PNX and PH. In addition, repeated intratracheal hydrochloric acid injection models were employed to induce lung injury (Reference 76). Orotracheal instillation was performed in anesthetized mice, and 20 μl of an iso-osmolar solution of 0.1 M hydrochloric acid (pH 1.0) was instilled. […] After recovery, mice were transferred to ventilated cages with access to food and water. […] At the described time points, pulmonary function and oxygen tension in arterial blood of treated mice were measured as previously described (Reference 7). To measure cell proliferation, 100 mg/kg 5-ethynyl-2′-deoxyuridine (EDU) was i.p. injected into mice one hour before sacrificing, and EDU incorporation was measured by EDU cell proliferation kit. Mice were i.p. supplemented with 1 ml PBS after all surgery procedures.
Injection of growth factor and treatment of HDAC and DNMT inhibitors. Three months old (young) mice were subjected to PNX, PH or kidney I/R and injected with 20 μg/kg P1GF or equal molar amounts of PDGF-BB, HGF, VEGF165, or TGFβ1 every three days. 3-mon Nrp1^+/+, Nrp1^iΔEC/iΔEC, or Hif2a^iΔEC/iΔEC mice were also treated with P1GF. To test the regulation of P1GF and NRP1, old mice were treated with 10 mg/kg HDAC inhibitor VPA, 0.5 mg/kg DNMT1 inhibitor azacitidine (AZA), or combinatorial treatment of VPA and AZA (VPA+AZA). Expression of EPCR and NRP1 proteins in isolated lung, liver, and kidney ECs were tested by immunoblot, and P1GF amounts in homogenized organs was tested by ELISA.

The test system of another test is kidney fibrosis. Briefly: Folic acid kidney fibrosis model. The class given is in vivo, mouse. The note with it: Nrp1 iΔEC/iΔEC mice after chronic injury. The protocol:
Animal Care and Mouse lines used. […] This mouse line was crossed with floxed Nrp1 […] mice to generate […] and control mice. […] Mouse kidney regeneration and repair models. Mouse kidney I/R model was adopted from described (Reference 72). After mice were anesthetized, ischemia was induced by the retroperitoneal approach on both kidneys for 30 min. Sham operation was carried out with exposure of kidneys without inducing ischemia. To generate kidney fibrosis, mice were given a single i.p. injection of folic acid at the dose of 250 mg/kg, as previously described (Reference 74). […] At indicated time, serum creatinine concentration was measured by the picric acid method, and tissue morphology and fibrosis were analyzed by Sirius red and hematoxylin co-stainings. Tissue fibrosis determination. Lung, liver and kidney fibrotic responses were determined at the indicated time after injury. Tissues were homogenized in tissue lysis buffer. Immunoblot of Collagen I was performed with the obtained tissue lysates. Protein level of Collagen I was compared between different groups. […] Sirius red-positive fibrotic parenchyma was determined from five random fields in each section and quantified. Hydroxyproline amount was quantified in the liver and lung to determine the extent of fibrosis.

A further test has as its system mouse liver fibrosis. The experiment in a line: CCl4 liver injury / fibrosis model. The class given is in vivo. The note with it: Nrp1 iΔEC/iΔEC mice after chronic injury. As for the experimental part: Animal Care and Mouse lines used.
Mouse liver regeneration and repair models. Mouse liver regeneration was induced by PH.
Tissue fibrosis determination. Lung, liver and kidney fibrotic responses were determined at the indicated time after injury. Tissues were homogenized in tissue lysis buffer. Immunoblot of Collagen I was performed with the obtained tissue lysates. Protein level of Collagen I was compared between different groups. Sirius red and hematoxylin stainings were performed on paraffin-embedded tissue sections to determine the tissue morphology and Collagen deposition and distribution (Reference 8). Sirius red-positive fibrotic parenchyma was determined from five random fields in each section and quantified. Hydroxyproline amount was quantified in the liver and lung to determine the extent of fibrosis.

Where [4] appears, read: 20 ng/ml TIMP1, co-treatment with 10 ng/ml TGF-β1.

For `c1cc(CN2CCCNCCNCCCNCC2)ccc1CN1CCCNCCNCCCNCC1` [AMD3100], the “TIMP1 upregulation in the macrophages of old organs” value in the test on TIMP1 is “attenuated”.
With `CCCC(CCC)C(=O)O` [VPA, valproic acid], the “expression of NRP1 in lung ECs” value with NRP1 is “reduced”.
As to “TIMP1: recombinant tissue inhibitor of metalloproteinases 1 incubated with fibroblast cells”, in test [1] (20 ng/ml TIMP1), the “phosphorylation of Smad2” value is “augmented” and the “smooth muscle cell actin (SMA) protein expression” value is recorded as “augmented”. In addition, in test [1] (setting [4]), the “phosphorylation of Smad2” value is on record as “further enhanced” and the “smooth muscle cell actin (SMA) protein expression” value is reported as “further enhanced”.

B1: P1GF: placenta growth factor, NRP1 ligand, injected into mice (protein, UniProt P49763 19-221, looked up)
Placenta growth factor: LPAVPPQQWALSAGNGSSEVEVVPFQEVWGRSYCRALERLVDVVSEYPSEVEHMFSPSCVSLLRCTGCCGDENLHCVPVETANVTMQLLKIRSGDRPSYVELTFSQHVRCECRHSPGRQSPDMPGDFRADAPSFLPPRRSLPMLFRMEWGCALTGSQSAVWPSSPVPEEIPRMHPGRNGKKQQRKPLREKMKPERCGDAVPRR
For the molecule B1, the “EPCR upregulation in liver ECs” value in the test with EPCR [2] is “did not prohibit”. The “effect of P1GF on EPCR / HIF2a” value with EPCR [3] (Nrp1 iΔEC/iΔEC mice after PNX) is recorded as “abrogated”. In addition, the “EPCR in lung ECs” value in the test on EPCR [3] (young Hif2a iΔEC/iΔEC mice after PNX) is “did not suppress”. Also, the “HIF2a in lung ECs” value in the test on EPCR [3] (young mice after PNX, 20 μg/kg) was “enhanced”. In addition, the “EPCR expression in lung ECs” value with EPCR [3] (young mice after PNX, 20 μg/kg or equal molar amounts) is “suppressed”.

B2: activated protein C (protein, UniProt P04070 200-461, looked up)
Vitamin K-dependent protein C …: DTEDQEDQVDPRLIDGKMTRRGDSPWQVVLLDSKKKLACGAVLIHPSWVLTAAHCMDESKKLLVRLGEYDLRRWEKWELDLDIKEVFVHPNYSKSTTDNDIALLHLAQPATLSQTIVPICLPDSGLAERELNQAGQETLVTGWGYHSSREKEAKRNRTFVLNFIKIPVVPHNECSEVMSNMVSENMLCAGILGDRQDACEGDSGGPMVASFHGTWFLVGLVSWGEGCGLLHNYGVYTKVSRYLDWIHGHIRDKEAPQKSWAP
modifications: Vitamin K-dependent protein C heavy chain activated two-chain form
On to B2, for which, in the test on kidney fibrosis, the “EPCR expression in kidney ECs” value is recorded as “enhanced” and the “HIF2A induction in kidney ECs” value is listed as “suppressed”. Further, in the test with mouse liver fibrosis, the “EPCR expression in liver ECs” value is listed as “enhanced” and the “HIF2A induction in liver ECs” value was “suppressed”.
